The text below walks through data of patent US6605443 (LUDWIG INSTITUTE FOR CANCER RESEARCH, dated 2003).

The target in assay [1] is T1, heteromeric complex of kinase-deficient TβR-II and TβR-I (UniProt P36897 34-503; P37173 23-567).
T1 construct: whole, on cells; also called TβR-II KD with TβR-I
Briefly: co-immunoprecipitation with Flag antiserum of 125I-TGF-β1 affinity-labeled receptors, COS cells. How it is done: (§1) To obtain insight into the mechanism by which Smad7 exerts its negative role in signaling by TGF-β family members, it was tested whether Smad7, like Smad2 and Smad3 (Zhang et al., *Nature* 383:168–172, 1996; Macías-Silva et al., *Cell* 87:1215–1224, 1996; Nakao et al., 1997), can associate with the TGF-β receptor complex. COS cells transfected with N-terminally Flag-tagged Smad7 in combination with TβR-II (wild-type, WT, or kinase-deficient mutant, KD) and TβR-I (wild-type or kinase deficient mutant) were affinity labeled with ^125I-TGF-β1, and cell lysates were subjected to immunoprecipitation with Flag antiserum against the Flag-epitope in Smad7. Immunoprecipitates were analyzed by SDS-PAGE and FujiX Bio-Imager. Expression of receptors and F-Smad7 after transfection was determined by immunoprecipitation with VPN antibody against TβR-I or DRL antibody against TβR-II on aliquots of cell lysates, and by immunoprecipitation with Flag antibody on lysates [^35S]methionine/cysteine labeled transfected cells. […] In contrast, Smad2 and Smad3 interact stably only with complex of […] (Macías-Silva et al., 1996; Nakao et al., 1997). No interaction was observed between Smad7 and a heteromeric complex of kinase-deficient TβR-II and TβR-I, or with TβR-II alone (FIG. 3). […]

The target in assay [2] is T2, TβR-II alone (UniProt P37173 23-567, limits assumed).
T2 construct: whole, on cells
T2 sequence (P37173 23-567 limits assumed): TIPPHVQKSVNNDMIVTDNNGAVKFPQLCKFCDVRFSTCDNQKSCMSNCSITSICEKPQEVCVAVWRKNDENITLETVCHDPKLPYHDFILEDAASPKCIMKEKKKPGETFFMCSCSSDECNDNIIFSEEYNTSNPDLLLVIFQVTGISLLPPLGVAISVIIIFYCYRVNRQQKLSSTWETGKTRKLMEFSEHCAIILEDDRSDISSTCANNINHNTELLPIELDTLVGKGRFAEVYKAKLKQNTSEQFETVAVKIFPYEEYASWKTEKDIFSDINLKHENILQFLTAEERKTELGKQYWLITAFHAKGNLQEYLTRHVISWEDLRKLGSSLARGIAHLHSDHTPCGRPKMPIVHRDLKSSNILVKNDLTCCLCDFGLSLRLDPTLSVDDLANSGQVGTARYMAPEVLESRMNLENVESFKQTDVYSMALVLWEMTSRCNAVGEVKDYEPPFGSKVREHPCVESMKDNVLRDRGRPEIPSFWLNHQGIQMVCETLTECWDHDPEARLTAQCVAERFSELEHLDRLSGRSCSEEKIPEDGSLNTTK
The assay is described as above. How it is done:
as §1

T1 sequence (P36897 34-503 limits assumed, chain 1 of 2): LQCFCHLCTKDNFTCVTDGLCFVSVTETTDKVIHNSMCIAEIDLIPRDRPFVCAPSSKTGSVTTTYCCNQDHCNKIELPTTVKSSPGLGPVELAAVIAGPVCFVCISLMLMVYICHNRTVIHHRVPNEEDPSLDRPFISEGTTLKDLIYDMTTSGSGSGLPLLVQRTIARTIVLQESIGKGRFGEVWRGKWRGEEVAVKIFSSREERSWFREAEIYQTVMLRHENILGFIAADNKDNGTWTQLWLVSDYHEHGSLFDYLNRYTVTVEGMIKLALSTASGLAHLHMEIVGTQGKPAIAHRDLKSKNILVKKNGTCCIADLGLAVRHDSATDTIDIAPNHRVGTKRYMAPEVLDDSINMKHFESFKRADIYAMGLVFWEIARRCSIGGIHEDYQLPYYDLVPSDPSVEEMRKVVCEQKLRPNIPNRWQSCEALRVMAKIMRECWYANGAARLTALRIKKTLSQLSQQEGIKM
T1 sequence (P37173 23-567 K277R limits assumed, chain 2 of 2): as the sequence (P37173 23-567 limits assumed) above, with K255R counted along it

B1: N-terminally Flag-tagged Smad7 (F-Smad7) (other, not shown: small tags and cut ends)
chain: MFRTKRSALVRRLWRSRAPGGEDEEEGVGGGGGGGELRGEGATDGRAYGAGGGGAGRAGCCLGKAVRGAKGHHHPHPPTSGAGAAGGAEADLKALTHSVLKKLKERQLELLLQAVESRGGTRTACLLLPGRLDCRLGPGAPASAQPAQPPSSYSLPLLLCKVFRWPDLRHSSEVKRLCCCESYGKINPELVCCNPHHLSRLCELESPPPPYSRYPMDFLKPTAGCPDAVPSSAETGGTNYLAPGGLSDSQLLLEPGDRSHWCVVAYWEEKTRVGRLYCVQEPSLDIFYDLPQGNGFCLGQLNSDNKSQLVQKVRSKIGCGIQLTREVDGVWVYNRSSYPIFIKSATLDNPDSRTLLVHKVFPGFSIKAFDYEKAYSLQRPNDHEFMQQPWTGFTVQISFVKGWGQCYTRQFISSCPCWLEVIFNSR
notes: Expressed by transfection in COS cells and immunoprecipitated with Flag antibody; also called F-mSmad7; mSmad7
In the case of B1, the binding result in assay [1] and in assay [2] was “no binding” in each case.
